Test results taken from the DeepSol protein solubility set.

Test: soluble on expression in E. coli; label from the status in PepcDB or PDB records

Sequence: MGKYKFIEERVETMSSSELKIFLNILKSRSKELMSTLESVRGIKDLEAVCKSTQKLNNRVSEFDGGSFLILVVGPVKSGKSTLVNLIAHAHVSPTHFLECTVRPSIISKGQEESITRIFSVADKARKVEQFDSVIDSLRGFEKLENISEISIEKKELNDANLEECVSLALEESVINTDHTLVTSITTSGGELLKDNIFLVDMPGLDGGYVNLDNPIYETISQRADFVIFVQSSNSAISKVSNRFLKLLQENNPKVPVCLLHNVFEAAYWHSEEEKQAVIKAQVEFAENEMGRRNFQLKENIYSLNLGKVADAASYEGMEDLQEEAAKFQRFEKDLYGKVISNSTDIRLRSVIGRTLNQLEKLDNLVGESIGQQEAIDIEYQAAATSFDELLRQASELSYDGSDFRKMVQVYMDDDLKEFTEIVREYYDSGCNSAFAGGAKGKDATRSLVTKFMTDSSAAIKSKFLDSHEHSLARQYLRKLSNLKDDVAFIEKMNTFLKQKGCAPFDSVPQVTDFPVVDFDLQGAFDVKNINNPTVPHIGIPNPFGTYSTMEIQSFLRKAMECITGIDHTHTGKTIKGYLQLTVGKSIYKAANDLYDQYVPVRKQSIIDFLEQQKTMYLNALVSDKEEFDRKDALLRSINAQVQSFKDSIR
- soluble on expression in E. coli: not soluble

Sequence: MAHHHHHHMGFSLLHPLPSAIHAGSNSSRLAVQRNPCRRSTEWCHGGSSGKQKKQRHCRGSEAGRPSGLPPNPRAPPPHHHRSAEGPRRPARHRRRHRRCTEDRPSSKPPAAHPRCRWARSPRRLSEHLGRLPLLGRRILLGCSQVDILRWGAAAGINALRNGDGCPLAILVQ
- soluble on expression in E. coli: not soluble

Sequence: MLQPPHQSLQVAAVPAQRAPVRDRDQDAPWHTEAVCRRDEAGLFFAPSKEPTAARLSREEAAKRVCARCPVMVECREHALLQPEPYGVWGGLTAAERRVVLARRRRRDVELKKAARGTIAAAG
- soluble on expression in E. coli: not soluble

Sequence: MGSDKIHHHHHHMDYLDKLTHLAQVRGEINIRCEFQGEWQISHQEKDAGKGIFHLIEQGECWLTLNEKQFHLKEGDVFFLPQNQPHSMHYSANKRADIPTKKSHQGLFELHQIGRGTPDLKMFCGNFYYQQDALLTASMPEYLHINLCDTPIHPLVQLFLQEAQKNDAGTKSVVDALSNVLLIYILRHAIQQNLIEQGILFALQDKRLNTALIAILQQPQNDWHIEQLAELATMSRANFIRIFQQHIGMSPGRFLTKVRLQSAAFLLKQSQQSVLAIALEVGYQSEAHFCKVFKNYYQLSPSQYRKSVSL
- soluble on expression in E. coli: not soluble

Sequence: IENYHVEEAENDLTQLANKVAVILENHEDQALARSITWELADNLTSIAIIQDEKNHWYSPNDKNRLSSITVEQIQHDKDLNKALKDHKKVSKRTGLSDTDTDNERLIVGVPYEKDGKKGMVFLSQSLLAVKDTTKHTTR
- soluble on expression in E. coli: not soluble

Sequence: MGSDKIHHHHHHMTANPTVFTFADSTDLILEIPDSTTANLDSQLFSHPYSRYQAYLNELCLSAVLPWLQEDFSTQAKVWPSATTLASLWELVNGTAVTIDGKRFILVPSENIDHSELRVQQEWVDLPTWAGDYYLAVQVDGEYVKVWGYCTHTQLKHQGKYDPGDRTYSLDITDIVNDISVLAVARDLCPDEITRTAIAPLPTIPQEQAQNLITRLSNPEIINPRLAIPFQLWGALIEHGGWRQSLYERRLGLPEQRSVLQWLQSGVSQVAQTMGWGRLNLQLSAAGARSVEERQTGVTLSRRLTIAGQLYELLITPQGEPDAPYWRFELRNAAVGAVIPGGFKLRLLTEDLQSFPNNEDIATNAVEQLYVEVALEAGEGIVWEIEPLPENYDREILKF
- soluble on expression in E. coli: not soluble

Sequence: SAVAIPQATSLTNLVFLTKLIPRGSFTTILPKHHRKPIFVFSLQTQFSSPVTTLTSKNPKDDEQQQKLSFTLNYLIDSCGLSPDSATVASRKLLLDSPERPNTVLNLLRDHGFTTAQISSLVKKRPVLLLANAESVLLPKLSFFLSIGVSKSLLARTLASDPTILTRSLVNQLIPSYNFLKSVLDSDEKIVAALRRTTWVFLEDHTKNLVPNINYMAETGVPEKCIKLLLTHFPEAVMQKNHEFQAIAKQAQEMGFNPQKSTFVLAIHALSGKGNKSIWDKCFEVYQRWGWSEDDIMCAFKKHPHCMMLSERKINRTMEYFVNEMNMAPRSIAQCPVVLFFSLEKRIIPRCSVTKVLVSNGLVKEDWSLTSLLVPVEKVFLEKLVIKYEEELPELMNLYLGCTKL
- soluble on expression in E. coli: soluble

Sequence: SNLYTERVLSVHHWNDTLFSFKTTRNPGLRFKTGQFVMIGLEVDGRPLMRAYSIASPNYEEHLEFFSIKVPDGPLTSRLQHLKEGDELMVSRKPTGTLVHDDLLPGKHLYLLSTGTGMAPFLSVIQDPETYERYEKVILVHGVRWVSELAYADFITKVLPEHEYFGDQVKEKLIYYPLVTREPFRNQGRQTDLMRSGKLFEDIGLPPMNPQDDRAMICGSPSMLEETSAVLDSFGLKISPRMGEPGDYLIERAFVEK
- soluble on expression in E. coli: soluble

Sequence: MKDDRYPSEWAQLALQKKQSVNWACERCGVQCLKPGEGKGLSTGDRYRLRMAVHHCDYDPGNNSPSNLKALCSPCHLYFHRRQRGNVIPGQLRLKFSFLILEHHHHHH
- soluble on expression in E. coli: soluble

Sequence: GLLDLKSMIEKVTGKNALTNYGFYGCYCGWGGRGTPKDGTDWCCWAHDHCYGRLEEKGCNIRTQSYKYRFAWGVVTCEPGPFCHVNLCACDRKLVYCLKRNLRSYNPQYQYFPNILCS
- soluble on expression in E. coli: soluble

Sequence: MGPMPKLADRKLCADQECSHPISMAVALQDYMAPDCRFLTIHRGQVVYVFSKLKGRGRLFWGGSVQGDYYGDLAARLGYFPSSIVREDQTLKPGKVDVKTDKWDFYCQ
- soluble on expression in E. coli: soluble

Sequence: MKFKAVFISDTHLGTKDSKASLLLEFIKEIETKELYLVGDIIDGWSLKRKWIWLQPHSDVIQKILKAARKGVRVTYILGNHDEFIRPFLPLALGDHIRVVDEATYKAKNKKRYKIVHGDLYDSITMTKKWLAILGDNGYQFLLRLNDPINTLRQRLGFRRYWSFSQFIKDHVKQAVAYISDFEKILVAHAREEKFDGIICGHIHKAEIRDIEGITYMNCGDWVESCTALVETLEGEFKIIRWLDER
- soluble on expression in E. coli: not soluble

Sequence: MAHHHHHHMRNGPKVLIALGNELKRGAASHQCKGDVARMYVNYLRQRYSMDEWNHVSNVNSFICEKNNIILIKPVTSLEKNSGLAIKNILNYLNCEDLKNVCIILPDLYRSIGKFKYKSYTKIYEKLGPDFYNILNSNIINNVLCNHFLQLCIGVSNYPNETKNAVAIALQECLSDGELKKIFKTFQLAEEYFHKKIMNGKVITTNYIHFKEKYPAMEPQKSFRRSTASRRYILDVYRHMYK
- soluble on expression in E. coli: not soluble

Sequence: MEQLKCHVKQYAWGKYGEESEVARLFADGHESFQIDQKTPYAELWMGTHPDGPAQLKKCSTKLSTYLAKNPSPLTNNNSAKNIHLPFIMKVMSIRTTLSLQVHPTKEQARRLHEKDPIHYPDRNHKPELAYALTRFELLCGFRPAREILQNLQTFPSFRLLFGGDTYAKPLEDCIQQMKDLNSVDQKSTEFKDSRKYLEDCFRFMMVPERNDVHDLIAKLLSELDNGLRGAVEEVTVGVIRKMSVDFPNDIGIFSPLFLNHMILEPGQCCYYAAEELHAYLSGECVECVGCSNNTIRAAMTPKYIDRDALCSVLNYKMTEQKDYLVPENKLTECVDMYAPDCKDFQLHRIRVGTHQTVEEMMIPTLDCASIFVVVSGKGTLEEATIDNQLIGQYEVKRGDIFYIPPKHNIRFSSCSEPLEGYRTFSYEMGPDHDTRLVTPVQNAVPTITEKMFKLDADMEEAITAVV
- soluble on expression in E. coli: not soluble

Sequence: MFDLEKVQTLNELEMLVYHYVLEHLHQIPQQTIRQLATSCHVSTSTILRFCNKMGYAGFSELKYAVKEEAKQTQTFENFYDATVHVDAFLKKLNQETYYEMLRPAIQMIVQARHVAFTGIGTSGILGSYGSRYFANLNINSYSIADPFTPIPKRGFENTLALILSVSGETNEMIKQMTDFKTAGAKVLSITNNQHSTIARLADYNISYYMPDERSPFADKSVNTTTQIPVIALIELLAHQASQLLKELDETPS
- soluble on expression in E. coli: not soluble

Sequence: GAMDPAVMKIEYYSQVLDMEWGVNVLYPDANRVEEPECEDIPVLYLLHGMSGNHNSWLKRTNVERLLRGTNLIVVMPNTSNGWYTDTQYGFDYYTALAEELPQVLKRFFPNMTSKREKTFIAGLSMGGYGCFKLALTTNRFSHAASFSGALSFQNFSPESQNLGSPAYWRGVFGEIRDWTTSPYSLESLAKKSDKKTKLWAWCGEQDFLYEANNLAVKNLKKLGFDVTYSHSAGTHEWYYWEKQLEVFLTTLPIDFKLEERLT
- soluble on expression in E. coli: soluble

Sequence: AMATAPRPLREQYLHFQPISTRWHDNDIYGHVNNVTYYAFFDTAVNTYLIERGGLDIQGGEVIGLVVSSSCDYFAPVAFPQRIEMGLRVARLGNSSVQYELALFLEGQREACAAGRFVHVFVERRSSRPVAIPQELRDALAALQSSAQ
- soluble on expression in E. coli: soluble

Sequence: MSLNQSYFNLLGNITWLWMNSSLHKEWSCELLARNVIPAIENEQYMLLIDNGIPIAYCSWADLNLETEVKYIKDINSLTPEEWQSGDRRWIIDWVAPFGHSQLLYKKMCQKYPDMIVRSIRFYPKQKELGKIAYFKGGKLDKKTAKKRFDTYQEELATALKNEFNFIKKEGHHHHHH
- soluble on expression in E. coli: soluble

Sequence: MSLGNSAGFGSVGDNSSGGSGANRDANNRPSWFQETARRTIPNTVLRREVKSSSNSGEDDNGNRGDSTSTGFNTLTFGAKKHMLLGSSNVSTGGNDHMNPLLMDNSEAPPTVSISDWKREEGLFDLRNTRNENTINTIGTPTFISPISREKSEVSLFDSNSQSRSSSASSIGSESETGNAVVVFGYREAITKQILAYFAQFGEILEDLESELGDTETMRTPGYFFQQAPNRRRISREHGRTWTKLTYANHSSYLRALREHGTIYCGAAIGCVPYKHELISELSRDTYNSMNDVKQTNSISTNQLTQHNQSEVPKSNQTFETKPTNETERNQIKTPSAFGSDNKGNGSISSGRTKRRLSIKDGSSLFLSGTEGHHHHHH
- soluble on expression in E. coli: soluble

Sequence: MGSDKIHHHHHHMIYKMTDKDMEILFERISKDFQSFGSKEENGDIVFGDIQRFSDISEEKSSYPPKDFLIERSENILSIPRAEKRAVFGVKSCDLRGFYIMDKQILGKDPFYTVKRENTMFINFVCEKMCSGGFCTSFGGPVLDEYDVQVLHKNGYFYVEASDKYEKYLFGFSESDDQNVFEEHKKEFESLYGRLNVDGIENRMKWSSNLWNKFANYCISCGACNYSCPTCYCVDVYDDDDGRKKEWDSCILEGFTRTAAGNVRPELSERLRQRFYHKFKYYKLSRGAYLCTGCNRCVDDCPVDIDIKEVITHDYDRE
- soluble on expression in E. coli: not soluble

Sequence: MVADMAGSSEKFKIVLKPVTAEAVPSGDAVKVTTGGVQIDVYPEREAGGPERGLTPLGLLAASLASCEVLMSRLVGRMLGYNGFDVRVAVTADVQVAEGLRSLSIRYVFKGVDIDTANLIVSKVKELCPVYNSLVRNGVSVEENVEVE
- soluble on expression in E. coli: soluble

Sequence: MGSDKIHHHHHHEVYIFTSHREPALDGLHYLYSYDGYHWDSIAGSWLKPEIGNKTPYYNYFTKQTEEQKYAPNSMMRDPSMTQGPDGTFHLVWTISWNGEQGFGYASSKDLIHWSEQREIKVMKDSLTNNVWAPEVFYDDEKEQFIVAWSSAIPVERYTAADSLGANKSHRAYYTTTKDFQTFTPAKAFYDPGFNSIDGFIVKRDKNDYVLIIKDNRKPGYSDLFCVSGPSAEGPYADPSVKFAPTYSEGPCAVKVGDEWLIYFDVYREGRFGAVSTKDFKNFTPIDDQISIPQGHKHGTIIEVPESVLLNLKAEEAKRFPQKD
- soluble on expression in E. coli: not soluble

Sequence: MGSSHHHHHHSSGRENLYFQGMPSLTPRCIIVRAGQTEWSKSGQYTGLTDLPLTPYGEGQMLRTGESVFRNNQFLNPDNITYIFTSPRLRARQTVDLVLKPLSDEQRAKIRVVVDDDLREWEYGDYEGMLTREIIELRKSRGLDKERPWNIWRDGCENGETTQQIGLRLSRAIARIQNLHRKHQSEGRASDIMVFAHGHALRYFAAIWFGLGVQKKCETIEEIQNVKSYDDDTVPYVKLESYRHLVDNPCFLLDAGGIGVLSYAHHNIDEPALELAGPFVSPPEEESQHGDV
- soluble on expression in E. coli: soluble
